Test results published in patent publication US20210040206A1 (OSE IMMUNOTHERAPEUTICS, published 2021).

Columns and labels:
[1] = biological target: T1, human SIRPa v1 expressed by blood monocytes or monocyte-derived cells (V1/V1 donors) (human, UniProt P78324 31-504); assay: FACS competition on human monocytes of V1/V1 donors; blocked ligand: biotinylated CD47Fc, revealed with streptavidin-PE
T1 construct: donors were typed on exon 3; also called variant 1
Protocol: (§1) METHOD: Human monocytes (purified by elutriation from human PBMC at DTC platform, Nantes, and frozen in DMSO at 10M/ml at −80° C. or liquid nitrogen) were thawed in 40 mL complete RPMI medium. Then immediately centrifuged at 1000 rpm during 10 minCells are resuspended in 10 mL of RPMI medium and counted on Malassez cell. Frozen human monocytes are thawed, diluted samples are added and biotinylated CD47Fc is added afterwards. […] The following protocol was applied: —Put 100,000 human monocytes per well on V-bottom P96 plate; —Centrifuge 1 min at 2500 rpm and empty wells by flicking the plate; —Wash cells 2 times with 200 μL PSE (Centrifuge 1 min at 2500 rpm and empty wells); —Prepare 8 dilutions of the sample beginning with 10 μg/mL (concentrated 2×, final concentration 5 μg/mL) and diluting by steps of 3; —Add 12.5 μL of sample/well on cells and mix; —Incubate 15 min on ice; —Prepare CD47Fc biotinylated solution concentrated 2×, determined in function of paragraph and add 12.5 μL of this solution/well on cells and mix.—Incubate 30 min on ice; —Add 175 μL PSE/w-Centrifuge 1 min at 2500 rpm and empty wells; —Wash cells 2 times with 200 μL PSE (Centrifuge 1 min at 2500 rpm and empty wells). An intermediate concentration is chosen for CD47Fc biotinylated. Here, 5 μg/mL CD47Fc biotinylated are took for the antagonist test. […]

[2] = biological target: T2, SIRPa V6 (SNP12 + 13) recombinant protein, extracellular domain fused with mouse Fc from IgG2a (human; mouse, UniProt P78324 31-373); assay: ELISA on immobilised SIRPa variant-mouse Fc, donkey anti-human IgG peroxidase, TMB 450 nm; given as ED50
T2 construct: SNP13 is printed as 101 N without a change; not shown: mouse Fc from IgG2a
Protocol: (§2) FIG. 4. SIRPa variants binding study using anti-human SIRPa v1 antibody and Kwar antibody by Elisa. Assessment of the binding by ELISA on immobilized SIRPa mutated variants (SIRPa from v1 to v8, see Table 2 in example 1) linked to the mouse Fc domain. Anti-human SIRPa v1 antibody and Kwar antibody (known to bind both SIRPa v1 and SIRPa v2) were compared for their ability to bind the different SIRPa mutated variants.
(§3) Method: The binding activity of the anti-SIRPa antibodies was assessed by ELISA. For the ELISA assay, the in-house anti-human SIRPa v1 antibody and Kwar antibody were tested on 8 different mutated hSIRPa (SIRPA v1 to v8; see table 2). The different variants of mutated hSIRPa (SIRPa v1 to v8) were immobilized on plastic at 0.5 μg/ml in carbonate buffer (pH9.2) and the purified antibody was added to measure binding.

[3] = biological target: T3, SIRPa V1 recombinant protein (extracellular domain fused with mouse Fc from IgG2a) (human; mouse, UniProt P78324 31-373); assay: as above
T3 construct: not shown: mouse Fc from IgG2a
Protocol: as §2, §3

[4] = biological target: T4, SIRPa V4 (SNP8) recombinant protein, extracellular domain fused with mouse Fc from IgG2a (human; mouse, UniProt P78324 31-373); assay: as above
T4 construct: not shown: mouse Fc from IgG2a
Protocol: as §2, §3

[5] = biological target: T5, SIRPa V7 (SNP14 + ?) recombinant protein, extracellular domain fused with mouse Fc from IgG2a (human; mouse, UniProt P78324 31-373); assay: as above
T5 construct: not shown: mouse Fc from IgG2a
Protocol: as §2, §3

[6] = biological target: T6, SIRPa V3 (SNP1 + 2 + 3 + 4 + 5 + 6) recombinant protein, extracellular domain fused with mouse Fc from IgG2a (human; mouse, UniProt P78324 31-373); assay: as above
T6 construct: SNP3 (51 A) is silent; not shown: mouse Fc from IgG2a
T6 chain: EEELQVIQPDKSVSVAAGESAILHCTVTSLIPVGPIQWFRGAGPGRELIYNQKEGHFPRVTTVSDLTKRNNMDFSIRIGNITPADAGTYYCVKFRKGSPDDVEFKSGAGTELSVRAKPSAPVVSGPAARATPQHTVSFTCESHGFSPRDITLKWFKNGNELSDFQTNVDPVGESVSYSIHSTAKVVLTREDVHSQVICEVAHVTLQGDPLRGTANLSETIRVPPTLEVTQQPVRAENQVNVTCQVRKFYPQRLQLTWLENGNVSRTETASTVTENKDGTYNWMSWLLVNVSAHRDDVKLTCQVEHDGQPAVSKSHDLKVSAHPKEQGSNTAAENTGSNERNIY
Protocol: as §2, §3

[7] = biological target: T7, SIRPa V5 (SNP9 + 10 + 11) recombinant protein, extracellular domain fused with mouse Fc from IgG2a (human; mouse, UniProt P78324 31-373); assay: as above
T7 construct: SNP11 (97 T) is silent; not shown: mouse Fc from IgG2a
Protocol: as §2, §3

[8] = biological target: T8, human SIRPa v2 expressed by blood monocytes (V2/V2 donors) (human, UniProt P78324 31-504); assay: FACS competition on human monocytes of V2/V2 donors; blocked ligand: biotinylated CD47Fc, revealed with streptavidin-PE
T8 construct: also called variant 2; V2 protein
Protocol: as §1

T1 sequence (P78324 31-504 limits assumed): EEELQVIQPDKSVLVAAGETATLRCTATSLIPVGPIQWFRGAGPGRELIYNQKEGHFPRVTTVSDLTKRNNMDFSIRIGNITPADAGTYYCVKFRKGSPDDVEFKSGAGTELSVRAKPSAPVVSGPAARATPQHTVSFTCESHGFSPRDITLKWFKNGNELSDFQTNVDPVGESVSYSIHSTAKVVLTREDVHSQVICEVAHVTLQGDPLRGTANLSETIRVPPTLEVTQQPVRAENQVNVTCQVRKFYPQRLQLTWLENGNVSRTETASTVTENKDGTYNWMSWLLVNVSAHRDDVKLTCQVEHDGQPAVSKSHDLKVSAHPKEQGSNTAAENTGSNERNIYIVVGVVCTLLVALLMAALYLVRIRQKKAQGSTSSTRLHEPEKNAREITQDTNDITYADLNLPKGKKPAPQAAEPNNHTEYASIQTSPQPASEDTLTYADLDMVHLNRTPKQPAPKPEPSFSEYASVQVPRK

B1: in-house anti-human SIRPa v1 antibody (antibody, human IgG4, V domains shown)
VH: EVQLVQSGAEVKKPGESLRISCKASGYSFTSYWVHWVRQMPGKGLEWMGNIDPSDSDTHYSPSFQGHVTLSVDKSISTAYLQLSSLKASDTAMYYCVRGGTGTLAYFAYWGQGTLVTVSS
VL: DVVMTQSPLSLPVTLGQPASISCRSSQSLVHSYGNTYLYWFQQRPGQSPRLLIYRVSNRFSGVPDRFSGSGSGTDFTLKISRVEAEDVGVYYCFQGTHVPYTFGGGTKVEIK
notes: also called in-house anti-SIRPa v1 antibody; in-house antibody
B1 was tested, and the “IC50 (read off the curve)” value [1] was about 90 ng/mL, the EC50 [2] was 0.72 ng/mL and the EC50 [3] was 0.78 ng/mL. It also gave an EC50 [4] of 0.71 ng/mL, an EC50 [5] of 0.54 ng/mL and an EC50 [6] of 0.99 ng/mL. For the same binder, the EC50 [7] was 0.63 ng/mL and the “IC50 (read off the curve)” value [8] was about 200 ng/mL.
